From PMC6430795, “Complex formation of APP with GABAB receptors links axonal trafficking to amyloidogenic processing” (Nature Communications, 2019)

Tests used:
Myc-GB1a = Myc-GB1a (UniProt Q9Z0U4)
APP on tsA201 cells = molecular target: T1, APP on tsA201 cells (UniProt P05067-4 18-695); assay: immunostaining of cells or tissue; cell surface binding: transfected tsA201 cells incubated 30 min at room temperature with 0.2 to 2000 nM purified Myc-SD1/2 in OptiMEM, fixed, bound SD1/2 stained with anti-c-Myc and put into ratio with the expressed protein; apparent KD from a Hill equation with a coefficient of 1; conditions: one partner purified
T1 construct: expression was read with goat anti-APP; source: tsA201 cells, transfected, on cells

AJAP-1 on tsA201 cells = molecular target: T2, AJAP-1 on tsA201 cells (UniProt A2ALI5 44-412); assay: as above; conditions: one partner purified
T2 construct: adherens junction-associated protein 1; cDNA from Source BioScience in pcDNA3; source: tsA201 cells, transfected, on cells
T2 sequence (looked up): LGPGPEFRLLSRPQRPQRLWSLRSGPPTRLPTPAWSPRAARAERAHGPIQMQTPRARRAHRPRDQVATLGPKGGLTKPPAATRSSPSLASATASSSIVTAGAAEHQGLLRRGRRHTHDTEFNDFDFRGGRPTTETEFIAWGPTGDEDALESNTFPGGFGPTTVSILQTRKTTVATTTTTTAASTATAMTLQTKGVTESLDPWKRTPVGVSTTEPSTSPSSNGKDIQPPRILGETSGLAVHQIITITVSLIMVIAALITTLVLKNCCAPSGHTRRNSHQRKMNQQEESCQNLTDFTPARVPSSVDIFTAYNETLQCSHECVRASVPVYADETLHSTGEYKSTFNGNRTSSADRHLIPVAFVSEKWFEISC

HA-PIANP on tsA201 cells = molecular target: T3, HA-PIANP on tsA201 cells (UniProt Q6P1B3 28-278); assay: as above; conditions: one partner purified
T3 construct: PILRα-associated neural protein; cDNA from OriGene in pCMV6 with an HA-tag insertion after amino acid 27; source: tsA201 cells, transfected, on cells; not shown: HA, internal (after residue 27), kept
T3 sequence (looked up): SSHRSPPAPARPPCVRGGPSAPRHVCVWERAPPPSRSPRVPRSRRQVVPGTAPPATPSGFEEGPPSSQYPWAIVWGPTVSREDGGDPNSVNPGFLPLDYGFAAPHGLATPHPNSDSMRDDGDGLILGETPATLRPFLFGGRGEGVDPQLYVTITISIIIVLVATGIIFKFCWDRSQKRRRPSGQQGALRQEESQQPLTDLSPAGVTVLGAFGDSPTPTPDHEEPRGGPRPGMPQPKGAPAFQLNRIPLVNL

## APP (APP695, pCAX-APP695) (from UniProt P05067-4 18-695) (natural protein)
Myc-GB1a
  reduction of BACE1-mediated Aβ40 secretion into the medium of HEK293 cells in the presence of GB1a/2 receptors, ELISA 32 h post-transfection: 77%
  reduction of the APP-βCTF/APP-FL ratio (BACE1 cleavage of APP) in HEK293 cells in the presence of GB1a/2 receptors, immunoblot densitometry: 60%
  reduction of the sAPPβ/APP-FL ratio (BACE1 cleavage of APP) in HEK293 cells in the presence of GB1a/2 receptors, immunoblot densitometry: 57%

B1: recombinant SD1/2 protein (sushi domains 1 and 2 of GB1a) (domain or fragment, UniProt Q9Z0U4 20-158, looked up)
chain: QTPNATSEGCQIIHPPWEGGIRYRGLTRDQVKAINFLPVDYEIEYVCRGEREVVGPKVRKCLANGSWTDMDTPSRCVRICSKSYLTLENGKVFLTGGDLPALDGARVEFRCDPDFHLVGSSRSVCSQGQWSTPKPHCQV
notes: the two N-terminal sushi domains (SD1 and SD2) of the GABAB receptor subunit GB1a; the NMR samples are called unlabeled recombinant SD1/2; also called Myc-SD1/2; Myc-SDI/II
APP on tsA201 cells
  Kd: 188 nM
AJAP-1 on tsA201 cells
  Kd: 6.4 nM
HA-PIANP on tsA201 cells
  Kd: 29.1 nM
